Reference: FireProtDB (doi:10.1021/bi00158a021)

Conditions: Bos taurus, pH 8, GdnHCl, CD, cacodylate 50 mM, reversible: yes

Phospholipase A2 F44I, P00593
ddG of mutation (higher = less stable) (30 °C, structure 1BP2): -2.7 kcal/mol
denaturant m value (30 °C, structure 1BP2): 1.73 kcal/mol/M
denaturant midpoint (higher = more stable) (30 °C, structure 1BP2): 7 M
unfolding free energy (30 °C, structure 1BP2): 12.2 kcal/mol

Phospholipase A2 F44Y, P00593
ddG of mutation (higher = less stable) (30 °C, structure 1BP2): -1.5 kcal/mol
denaturant m value (30 °C, structure 1BP2): 1.58 kcal/mol/M
denaturant midpoint (higher = more stable) (30 °C, structure 1BP2): 7 M
unfolding free energy (30 °C, structure 1BP2): 11 kcal/mol

Phospholipase A2 F128A, P00593
ddG of mutation (higher = less stable) (25 °C, structure 1BP2): 0.9 kcal/mol
denaturant m value (25 °C, structure 1BP2): 1.47 kcal/mol/M
denaturant midpoint (higher = more stable) (25 °C, structure 1BP2): 5.9 M
unfolding free energy (25 °C, structure 1BP2): 8.6 kcal/mol

Phospholipase A2 F128I, P00593
ddG of mutation (higher = less stable) (30 °C, structure 1BP2): -1.9 kcal/mol
denaturant m value (30 °C, structure 1BP2): 1.65 kcal/mol/M
denaturant midpoint (higher = more stable) (30 °C, structure 1BP2): 6.9 M
unfolding free energy (30 °C, structure 1BP2): 11.4 kcal/mol

Phospholipase A2 F128Y, P00593
ddG of mutation (higher = less stable) (30 °C, structure 1BP2): -0.6 kcal/mol
denaturant m value (30 °C, structure 1BP2): 1.53 kcal/mol/M
denaturant midpoint (higher = more stable) (30 °C, structure 1BP2): 6.6 M
unfolding free energy (30 °C, structure 1BP2): 10.1 kcal/mol

Phospholipase A2 wild type, P00593
denaturant m value (30 °C): 1.47 kcal/mol/M
denaturant midpoint (higher = more stable) (30 °C): 6.9 M
unfolding free energy (30 °C): 9.5 kcal/mol
